This is an account of results in article PMC4313621, “Hydrophobic mismatch sorts SNARE proteins into distinct membrane domains” (Nature Communications, 2015).

The series concerns the molecule itself. As to the kind of experiment: FRET or BRET; donor- (Rhodamine Red) and acceptor- (Atto647N) labelled peptides reconstituted together in 100 nm LUVs of C14:1, C16:1, C18:1 or C20:1 PC, without or with 30 mol% cholesterol; protein-to-lipid 1:1000; 50 mM HEPES, 150 mM KCl, pH 7.4. For orientation: In BRET a luciferase serves as donor, and the signal depends on an acceptor being close.

Ends that are not written are not given here.

B1: Syntaxin 4 TMD (residues 262-297; sx-4TM) (peptide, UniProt Q12846 262-297, looked up)
peptide: ALENQKKARKKKVLIAICVSITVVLLAVIIGVTVVG
modifications: also: N-terminus: Rhodamine Red or Atto647N
notes: syntaxin 4 transmembrane domain with juxtamembrane stretch, Homo sapiens, residues 262-297; also called syntaxin 4 truncation mutant; source: synthetic peptide (Fmoc solid phase synthesis)
B1: the binding result is “binds”.
